Experimental data taken from article PMC8413462, “Eukaryotic Box C/D methylation machinery has two non-symmetric protein assembly sites”.
Changes are numbered by the printed parent chain.

Legend:
L7Ae [1] = target: T1, L7Ae (Pyrococcus furiosus, UniProt Q8U160 1-123); assay: EMSA; similar to snR51-kl1; EMSA: annealed in 10 mM Tris-HCl, 100 mM NaCl, 1 mM EDTA, pH 7.5; 4 C, 10% native PAGE; 10 pmol Cy5-RNA (~2 uM) or 0.5 nmol unlabeled RNA. RNP: 20 mM Na phospha
Snu13 R95VP96A [2] = target: T2, Snu13 R95VP96A (Saccharomyces cerevisiae, UniProt P39990 1-126, R95V;P96A); assay: EMSA; EMSA: annealed in 10 mM Tris-HCl, 100 mM NaCl, 1 mM EDTA, pH 7.5; 4 C, 10% native PAGE; 10 pmol Cy5-RNA (~2 uM) or 0.5 nmol unlabeled RNA. RNP: 20 mM Na phosphate, 500 mM NaCl, pH 6.6; settings: protein: recombinant, tags: N-terminal His6, TEV-cleaved, label: 5'-Cy5
T2 sequence: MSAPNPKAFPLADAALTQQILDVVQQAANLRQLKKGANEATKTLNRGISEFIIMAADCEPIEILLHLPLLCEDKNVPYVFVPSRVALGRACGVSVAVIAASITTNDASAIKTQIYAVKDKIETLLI

Snu13 V93IR95V [3] = target: T3, Snu13 V93IR95V (Saccharomyces cerevisiae, UniProt P39990 1-126, V93I;R95V); assay: as above; settings: protein: recombinant, tags: N-terminal His6, TEV-cleaved, label: 5'-Cy5
T3 sequence: T2 sequence with V93I, A96P

L7Ae [4] = target: T1, L7Ae; assay: EMSA; EMSA: annealed in 10 mM Tris-HCl, 100 mM NaCl, 1 mM EDTA, pH 7.5; 4 C, 10% native PAGE; 10 pmol Cy5-RNA (~2 uM) or 0.5 nmol unlabeled RNA. RNP: 20 mM Na phospha
L7Ae [5] = target: T1, L7Ae; assay: EMSA; affinity not improved over snR51-kl1; EMSA: annealed in 10 mM Tris-HCl, 100 mM NaCl, 1 mM EDTA, pH 7.5; 4 C, 10% native PAGE; 10 pmol Cy5-RNA (~2 uM) or 0.5 nmol unlabeled RNA. RNP: 20 mM Na phospha
Snu13 R95VI98A = target: T4, Snu13 R95VI98A (Saccharomyces cerevisiae, UniProt P39990 1-126, R95V;I98A); assay: EMSA; better than wild type; EMSA: annealed in 10 mM Tris-HCl, 100 mM NaCl, 1 mM EDTA, pH 7.5; 4 C, 10% native PAGE; 10 pmol Cy5-RNA (~2 uM) or 0.5 nmol unlabeled RNA. RNP: 20 mM Na phosphate, 500 mM NaCl, pH 6.6; settings: protein: recombinant; tags: N-terminal His6, TEV-cleaved; label: 5'-Cy5; k-turn
T4 sequence: T2 sequence with A96P, I98A

Snu13 R95VP96A [6] = target: T2, Snu13 R95VP96A; assay: as above; settings: protein: recombinant; tags: N-terminal His6, TEV-cleaved; label: 5'-Cy5; k-turn
Snu13 V93IR95V [7] = target: T3, Snu13 V93IR95V; assay: as above; settings: protein: recombinant; tags: N-terminal His6, TEV-cleaved; label: 5'-Cy5; k-turn
Snu13 = target: T5, Snu13 (Saccharomyces cerevisiae, UniProt P39990 1-126); assay: EMSA (ethidium bromide); ~100 uM RNA; EMSA: annealed in 10 mM Tris-HCl, 100 mM NaCl, 1 mM EDTA, pH 7.5; 4 C, 10% native PAGE; 10 pmol Cy5-RNA (~2 uM) or 0.5 nmol unlabeled RNA. RNP: 20 mM Na phosphate, 500 mM NaCl, pH 6.6; settings: protein: recombinant; tags: N-terminal His6, TEV-cleaved; k-turn
T5 sequence: T2 sequence with V95R, A96P

Binder: UACGAAAUAGUUGAUGA (structured_RNA) [snR51-kl4]
- binding result (L7Ae [1]): binds

Binder: ACUGACUGUGAUCAAACGAUCUUGAAGA (structured_RNA) [snR54-kl2]
- binding result (Snu13 R95VP96A [2]): binds
- binding result (Snu13 V93IR95V [3]): binds

Binder: ACUGACUGUGAUCAAACGAUCUUGUAGA (structured_RNA) [snR54-kl1]
- binding result (L7Ae [4]): no binding
- binding result (Snu13 R95VP96A [2]; non-canonical k-turn): binds
- binding result (Snu13 V93IR95V [3]; non-canonical k-turn): binds

Binder: ACUGAAAUAGUUGUAGA (structured_RNA) [snR54-kl3]
- binding result (Snu13 V93IR95V [3]; k-loop): binds

Binder: UACUAAAUAGUUGAUGA (structured_RNA) [snR51-kl3]
- binding result (Snu13 V93IR95V [3]; k-loop): binds

Binder: UACUAGAUUGGUCUCUUUCAAGAAGGGGCUAAUUGAUGA (structured_RNA) [snR51-kl1]
- Kd (L7Ae [4]): < 141 nM

Binder: UACGAGAUUGGUCUCUUUCAAGAAGGGGCUAAUUGAUGA (structured_RNA) [snR51-kl2]
- binding result (L7Ae [5]): binds
- binding result (Snu13 R95VI98A): binds
- binding result (Snu13 R95VP96A [6]): binds
- binding result (Snu13 V93IR95V [7]): binds

Binder: UACGAGAUUGGUCUCUUUCAAGAAGGGGCUAAUUGAUGA (structured_RNA) [snR51-kl2 unlabeled]
- binding result (Snu13): binds
